B1: Duligo-LC1-NT3 (bispecific antibody, human IgG1, lambda, L234A L235A, V domains shown)
VH: EVQLVESGGGLVQPGGSLRLSCAASGFTLSGDWIHWVRQAPGKGLEWVGEISAAGGYTDYADSVKGRFTISADTSKNTAYLQMNSLRAEDTAVYYCARESRVSFEAAMDYWGQGTLVTVSS
VL: DIQMTQSPSSLSASVGDRVTITCRASQNIATDVAWYQQKPGKAPKLLIYSASFLYSGVPSRFSGSGSGTDFTLTISSLQPEDFATYYCQQSEPEPYTFGQGTKVEIKG
notes: also called Duoligo-LC1-NT3; duoligo-LC1-NT3
B2: Duligo-DXd (conjugate, chains of the INN, looked up)
VH: B1 VH
VL: DIQMTQSPSSLSASVGDRVTITCRASQNIATDVAWYQQKPGKAPKLLIYSASFLYSGVPSRFSGSGSGTDFTLTISSLQPEDFATYYCQQSEPEPYTFGQGTKVEIK
modifications: DXd payload

Experiments:
[1] = system: NUGC-4 tumor-bearing mouse model; assay: Anti-tumor effect in NUGC-4 tumor-bearing mouse model; type: in vivo, BALB/c-NUDE mice; details: NUGC-4, 10 mg/kg single dose intraperitoneal injection, day 32
Text: In the present experiment, the BALB/c NUDE mice inoculated with NUGC-4 cells were used for determining the anti-tumor effect of the EGFR/HER3-ADCs.
The female BALB/c-NUDE mice were purchased from Beijing Vital River Laboratory Animal Technology Co., Ltd, with the grade of SPF, the quality control department is Beijing Vital River Laboratory Animal Technology Co., Ltd, and the certificate number was NO.110011230103807533. The mice were domesticated for 3 days after arrival, and then the study began.
NUGC-4 cells were purchased from NIBIOHN (CAT #: JCRB0834) and routinely subcultured in strict accordance with the instructions for subsequent in vivo experiments. The cells were collected by centrifugation, resuspended in sterile PBS and adjusted to a cell density of 20×10^6 cells/ml. A NUGC-4 tumor-bearing mouse model was established by subcutaneous inoculation of 0.2 ml of cell suspension into the right abdominal region of BALB/c-NUDE mice on day 0.
Tumor volume of each mouse was measured 13 days after tumor cell inoculation, the mice with tumor volumes about 200 mm^3 were selected and grouped on average according to their tumor volume (7 mice per group). […] Administrations were conducted on day 13 after inoculation respectively, and the tumor volume and body weight of mice were monitored twice a week. […] Measurement of tumor volume: the maximum long axis (L) and maximum wide axis (W) of the tumor were measured using a vernier caliper, and the tumor volume was calculated as follows: V=L×W^2/2. Body weight was measured using an electronic balance. Table 3. Experimental design

human EGFR = molecular target: T1, human EGFR (human, UniProt P00533 25-645, limits assumed); assay: ELISA, EGFR antigen coated on plate, anti-human IgG Fc-HRP detection
T1 construct: Coated at 0.25 ug/mL; also called EGFR antigen

human HER3 = molecular target: T2, human HER3 (human, UniProt P21860 20-643, limits assumed); assay: ELISA, HER3 antigen coated on plate, anti-human IgG Fc-HRP detection
T2 construct: Coated at 0.25 ug/mL; also called HER3 antigen; ErbB3

[2] = system: human breast cancer cells MCF7; assay: In vitro cell killing assay (CTG); type: cell-based
Procedure: After 2-3 passages of the resurrected MCF7 cells, the culture medium was poured out firstly, rinsed with 10 mL PBS once, then the cells were digested with 4mL trypsin, the culture medium was terminated before centrifuged at 400xg for 3min, the supernatant was discarded, and the culture medium was further resuspended for counting. The cell density was adjusted to 3E4/mL, 50 µL of which per well was added into a round bottom low adsorption 96-well plate. The antibody to be detected was diluted in a gradient manner, then 50 µL of which per well was added into the corresponding cells, cultured at 37 °C for 5 days, then the 96-well plate was taken out, the plate was balanced to room temperature, 100 µL of CTG detection solution was added into each well, placed at a shaker at 300 rpm for 20 min, 100 µL of which was absorbed and placed into the white bottom 96-well plate, and the luminescence value was detected by using a multifunctional microplate reader.

[3] = system: human breast cancer cells MDA-MB-453; assay: In vitro cell killing assay (CTG); type: cell-based; details: MDA-MB-453, 5 days, Example 13

Molecule	TGI [1]	Tumor volume [1]	Kd (human EGFR)	fold decrease in Kd against SIB001-DXd (human EGFR)	Kd (human HER3)	IC50 ([2]; MCF7, 5 days)	reduction in IC50 ([2]; MCF7, relative to SIB001-DXd)	killing effect [3]
Patritumab-DXd [reference compound]	51%	636 mm^3	–	–	–	–	–	–
B1	–	–	0.0352 nM	~2.5 fold	0.0257 nM	–	–	–
B2	75%	414 mm^3	–	–	–	0.049 nM	approximately 250 fold	significantly stronger killing effect than SIB001-DXd
